# No end group written: not given here. mPEG 20 kDa = linear 20 kDa mPEG attached to the Gln side chain; mPEG 5 kDa = linear 5 kDa mPEG attached to the Gln side chain
# Assays:
# rat β-cell line RIN-m5F = assay: In vitro insulin secretion, static incubation of RIN-m5F cells; type: cell-based; settings: for EC50: read-out: In vitro insulin secretion in rat β-cell line RIN-m5F, EC50, 2 mM glucose, 30 min incubation, rat insulin ELISA, mean ± SEM of three experiments
# [1] = Pharmacokinetics after subcutaneous injection in rats; type: in vivo, Sprague-Dawley rats; settings: 1 mg/kg s.c.; for Cmax / tmax: plasma ELISA; for tmax: non-compartmental
Substance,EC50 (rat β-cell line RIN-m5F),tmax ([1]; four animals),also measured
"GLP-1-(7-36)-(Q23N–A30Q)-amide-Q^30-PEG 20 kDa (HAEGTFTSDVSSYLEGNAAKEFIQ(mPEG 20 kDa)WLVKGR-NH2; UniProt P01275 98-127, looked up, variant Q23N A30Q)",35 ± 3 nM,,"In vitro insulin secretion, Relative potency (rat β-cell line RIN-m5F; 1/(EC50 analog/EC50 GLP-1(7-36)-amide)): 0.017"
"GLP-1-(7-36)-(T11Q–Q23N)-amide-Q^11-PEG 5 kDa (HAEGQ(mPEG 5 kDa)FTSDVSSYLEGNAAKEFIAWLVKGR-NH2; UniProt P01275 98-127, looked up, variant T11Q Q23N)",106.3 ± 0.5 nM,,
GLP-1-(7-36)-amide-Q^23-PEG 5 kDa: GLP-1(7-36)-amide monopegylated at glutamine 23 with linear 5 kDa mPEG-NH2,,3 h,"t1/2 ([1]; elimination phase of log transformed curve, four animals): 1.7 h; Cmax ([1]; four animals): 160.4 ng/mL"
GLP-1-(7-36)-amide-Q^23-PEG 20 kDa: GLP-1(7-36)-amide monopegylated at glutamine 23 with linear 20 kDa mPEG-NH2,34.4 ± 0.8 nM,9 h,"AUC (AUC96 h) ([1]; 0→96 h, linear trapezoidal rule, four animals): 16,799.8 ng/ml×h; plasma concentration after 96 h ([1]; 96 h): around 5 ng/ml; Cmax ([1]; four animals, 1 mg/kg): 640 ng/mL"
GLP-1-(7-36)-amide-Q^23-PEG 50 kDa: GLP-1(7-36)-amide monopegylated at glutamine 23 with branched 50 kDa mPEG-NH2,1870 ± 1 nM,,

# From publication PMC4167179 (Results in Pharma Sciences, 2012)
